Data: patent US9688764B2, “Methods of treating breast cancer by administering anti-human prolactin receptor (PRLR) antibodies” (REGENERON PHARMACEUTICALS, INC., priority 2013, dated 2017)

B1: H1H6800P-DM1 (conjugate)
VH: EVQLVESGGGLVQPGRSLRLSCAASGFTFDGYAMHWVRQGPGKGLEWVSGISWYSDTLGYADSVKGRFTISRDNAKNSLYLQMNSLRTEDTAFYYCAKISSSGWAFDYWGQGTLVTVSS
VL: EIVLTQSPGTLSLSPGERATLSCRASHSVSSAYLAWYQQKPGQTPRLLIYGTSSRATGIPDRFSGSGSGTDFTLTISRLEPEDFAVYYCQQYGSSPLFTFGPGTKVDIK
B2: H1H6803P-DM1 (conjugate)
VH: EVQLVESGGGVVRPGGSLRLSCAASGFKFDDYGMTWVRHVPGKGLEWVSGINWNGGRTGYTDSVKGRFTISRDNAKNSLYLQMNSLRAEDTALYHCAGARRDAFDIWGQGTMVTVSS
VL: DIQMTQSPSSLSASIGDRVTITCRASQNIIKYLNWYQQNAGKAPKLLIYTASSLQSGVPSRFSGSGSGTDFTLTISSLQPEDFATYYCQQSSSSPYTFGQGTKLEIK
B3: H1H6975P-DM1 (conjugate)
VH: EVHLVESGGGLVQPGGSLRLSCAASGFTFSSYEMNWVRQTPGKGLEWISHISSRSVIIYYADSVKGRFTISRDNAKNSLFLQMNSLRAEDTAVYFCAGITIFGIPEYWGQGTLVTVSS
VL: EIVLTQSPATLSLSPGERATLSCRASQSVSSYFAWYQQKPGQAPRLLIYDASSRATGIPTRFSGSGSGTDFTLTISSLEPEDFAVYYCQQRSSWPITFGQGTRLEIK
B4: H1H6762P-DM1 (conjugate)
VH: QVQLVESGGGVVQPGRSLRLSCAASGFTFSHYGMVWVRQPPGKGLEWVALISFDGTTKYYADSVKGRFTISRDNSKNTLYLQMNSLRAEDTAVYFCVGAIAAAAFDLWGRGTLVTVSS
VL: EIVMTQSPATLSVSPGERATLSCRASQSVSSDLAWYQQKPGQAPRLLIYSASARATGIPARFTGSGSGTDFTLTISSLQSEDFAVYYCQQYNNWPMYTFGQGTKLEIK
B5: H1H6793P-DM1 (conjugate)
VH: EVQLVESGGGLVQPGGSLRLSCAASGFSFSIYAMSWFRQAPGKGLEWVSAINGRGDGTHYADSVKGRFTISRDNSKTTLYLQMSSLRAEDTAVYYCAKPVMSTNGFDIWGQGTMVTVSS
VL: DIQMTQSPSTLSASVGDRVTITCRASQSISSWLAWYQLKPGKAPKLLIYKASNLESGVPSRFSGSGSGTEFTLTISSLQPDDFATYYCQQYNIYWTFGQGTKVEIK
B6: H1H6953N-SMCC-DM1 (conjugate)
VH: EVQLLESGGGLVQPGGTLRLSCAASGFTFSAYAMSWVRQAPGKGLEWVSSINVRAGDTYYADSVKGRFTISRDNSKNTLFLLMNSLRAEDTAAYYCAKARYSSNWGFDFWGQGTLVTVSS
VL: DIVMTQSPDSLTVSLGARTTINCQSSQTILHSSNNHNYLAWYQQKPGLPPKLLIYWSSTRESGVPDRFSGSGSGTDFTLTISSLQAEDVAIYYCQQYSNTPYTFGQGTKLEIN
B7: H1H6765P-mc-VC-PAB-MMAE (conjugate)
VH: EVQLVESGGGVVRPGGSLRLSCVGSGFSFDDHGMNWVRQGPGKGLEWVSGFNWNGGSTNYAESVKGRFTISRDNARNSLFLQMNSLRAEDTALYYCVRGRSGWFNDAFDVWGPGTMVTVSS
VL: EIVLTQSPGTLSLSPGERATLSCRASQTINSNYLAWYRQKPGQTPRLLIYGTSSRATGIPDRFSGSGSGTDFSLTISRLEPEDFAVFYCQQYAGLPTFGPGTKVDIK
B8: H1H6958N2-mc-VC-PAB-MMAE (conjugate)
VH: QVQLVESGGGVVQPGRSLRLSCGASGFTFRNYGMQWVRQGPGKGLEWVTLISFDGNDKYYADSVKGRFTISRDNSKNTLFLQMNSLRTEDTAVYYCARGGDFDYWGQGTLVTVSS
VL: DIQMTQSPSSLSASVGDRVTITCRASQDIRKDLGWYQQKPGKAPKRLIYAASSLHSGVPSRFSGSGSGTEFTLTISSLQPEDFATYYCLQHNSYPMYTFGQGTKLEIK

Tested on: not listed separately
Assay: Conjugate characterization: protein and linker/payload concentrations, payload loading (UV, MALDI-TOF, SEC-HPLC, RP-HPLC)
Format: physicochemical
Details: Anti-PRLR-SMCC-DM1 conjugates; Table 9
Excerpt: Selected anti-PRLR antibodies were conjugated to the maytansinoid DM1 through an SMCC linker using methods similar to those set forth in U.S. Pat. No. 5,208,020 and US Patent Application Publication No. 2010/0129314, the disclosures of which are incorporated by reference herein in their entireties. The conjugates were purified by size exclusion chromatography and sterile filtered. All starting materials and solvents were purchased commercially and used without purification, unless otherwise noted.
Protein and linker/payload concentrations were determined by UV spectral analysis and MALDI-TOF mass spectrometry. Size-exclusion HPLC established that all conjugates used were >95% monomeric, and RP-HPLC established that there was <0.5% unconjugated linker payload. Yields are reported in Table 8 and 9 based on protein. All conjugated antibodies were analyzed by UV for linker payload loading values according to Hamblett et al, 2004, Clinical Cancer Research 10(20):7063-7070, and by mass difference, native versus conjugated.

| Molecule | Payload:Antibody Molar Ratio (MS) | Payload:Antibody Molar Ratio (UV) |
| --- | --- | --- |
| B1 | 3.2 | 3.0 |
| B2 | 3.1 | – |
| B3 | 3.4 | 3.0 |
| B4 | 2.9 | – |
| B5 | 3.8 | – |

Tested on: T47D cells
Assay: Cell viability (cell kill) assay
Format: cell-based
Details: T47D; Table 12; 3 days
Description: (§1) Next, the ability of anti-PRLR-DM1 antibody-drug conjugates (i.e., anti-PRLR antibodies conjugated to DM1 via a non-cleavable linker [SMCC]) to reduce cell viability was determined using in vitro cell based assays. Cells were seeded in PDL-coated 96 well plates at 1500 to 10000 cells per well in complete growth media and allowed to grow overnight. For cell viability curves, ADCs or free DM1 (as the methyl disulfide derivative DM1-SMe) were added to the cells at final concentrations ranging from 500 nM to 5 pM and incubated for 3 days. The 293, PC3 and T47D cells were incubated with CCK8 (Dojindo, Rockville, Md.) for the final 1-3 hours and the absorbance at 450 nm (OD450) was determined on a Flexstation3 (Molecular Devices, Sunnyvale, Calif.). MCF7 cells were treated with Hoechst 33342 nuclear stain while being fixed with 4% formaldehyde. Images were acquired on the ImageXpress micro XL (Molecular Devices, Sunnyvale, Calif.) and nuclear counts were determined via Columbus image analysis software (Perkin Elmer, Shelton, Conn.). Background OD450 values (PC3, 293, and T47D) or nuclear counts (MCF7) from digitonin (40 nM) treated cells was subtracted from all wells and viability was expressed as a percentage of the untreated controls. IC50 values were determined from a four-parameter logistic equation over a 10-point response curve (GraphPad Prism).
Additionally, the impact of the PRLR ligand, PRL, on PRLR-SMCC-DM1 cell kill in T47D cells was assessed. T47D cells were incubated simultaneously with PRL (15 nM) and either a non-blocking anti PRLR antibody (H1H6782P) or a receptor blocking antibody (H1H6958N2).
(§2) Additional toxins (DM4, MeNHC3-May, and MMD) conjugated to anti-PRLR antibodies were also tested in T47D and MCF7/hPRLR cell lines, and results are summarized in Tables 19 (293 and T47D cell killing) and 20 (MCF7/ATCC and MCF7/PRLR cell killing). (ND=not detected).

| Molecule | % Kill [%] |
| --- | --- |
| B1 | 79 |
| B2 | 77 |
| B4 | 80 |
| B5 | 53 |

Same assay, conditions: T47D; Table 12; 3 days; read-out: IC50

| Molecule | IC50 [nM] |
| --- | --- |
| B1 | 3.2 |
| B2 | 8.61 |
| B4 | 12.6 |
| B5 | 11.1 |

Same assay, conditions: T47D; Table 19

| Molecule | % Kill [%] |
| --- | --- |
| B6 | 100 |
| B7 | 90 |
| B8 | 90 |

Same assay, conditions: T47D; Table 19; read-out: IC50

| Molecule | IC50 [nM] |
| --- | --- |
| B6 | 1.5 |
| B7 | 1 |
| B8 | 1 |

Tested on: MCF7/hPRLR (MCF7/PRLR) cells
Assay: Cell viability (cell kill) assay, nuclear counts
Format: cell-based, human
Details: Table 12, 3 days
Excerpt: (§3) PRLR-overexpressing cells, including HEK293, PC3, MCF7 and NCI-N87, were generated to assess the ability of anti-PRLR conjugated antibodies to reduce cell viability. For comparative purposes, PC3 and T47D cells with overexpressed ErbB2 were also generated, as well as an MCF7 cell line over-expressing both hPRLR and hErbB2. Briefly, Lipofectamine® 2000-mediated transfection methodology was utilized to generate HEK293 cells expressing human PRLR (HEK293/hPRLR) or human ErbB2 (HEK293/hErbB2). Lipofectamine LTX with Plus Reagent was used to generate PC3 cells expressing human PRLR (PC3/hPRLR) or human ErbB2 (PC3/hErbB2). Lentiviral-mediated transduction was utilized to generate MCF7 cells expressing human PRLR (MCF7/hPRLR), NCI-N87 cells expressing human PRLR (NCI-N87/hPRLR), T47D cells over-expressing human ErbB2 (T47D/hErbB2), and MCF7 cells expressing both human PRLR and human ErbB2 (MCF7/hPRLR/hErbB2). All lines were selected for at least two weeks in complete growth media plus appropriate selection reagents. Stably expressing populations were enriched for PRLR expression via FACS using the anti PRLR antibody Control I.
as §1
(§4) Finally, the potency of anti-PRLR antibodies conjugated to DM1 via the non-cleavable linker SMCC was compared to the cell killing potency of anti-PRLR antibodies conjugated to MMAE via the cleavable linker: mc-vc-PAB (available from Concortis, San Diego, Calif.). Cells used in this experiment were PC3, PC3/hPRLR, MCF7/ATCC and MCF7/PRLR.
as §2

| Molecule | % Kill [%] | IC50 [nM] |
| --- | --- | --- |
| B1 | 85 | 0.4 |
| B2 | 84 | 0.44 |
| B4 | 83 | 0.46 |
| B5 | 87 | 0.54 |

Same assay, conditions: Table 18

| Molecule | % Kill [%] | IC50 [nM] |
| --- | --- | --- |
| B6 | 80 | 0.1 |
| B7 | 86 | 0.2 |
| B8 | 88 | 0.2 |

Same assay, conditions: Table 20

| Molecule | % Kill [%] | IC50 [nM] |
| --- | --- | --- |
| B6 | 80 | 0.3 |
| B7 | 90 | 0.2 |
| B8 | 90 | 0.2 |

Tested on: PC3 cells
Assay: Cell viability (cell kill) assay
Format: cell-based
Details: Table 11, 3 days
Excerpt: as §3, §1, §4

| Molecule | IC50 [nM] |
| --- | --- |
| B1 | 150 |
| B2 | 150 |

Same assay, conditions: Table 18

| Molecule | IC50 [nM] |
| --- | --- |
| B6 | 90 |
| B7 | 150 |
| B8 | 100 |

Tested on: MCF7 (MCF7/ATCC) cells
Assay: Cell viability (cell kill) assay, nuclear counts
Format: cell-based
Details: MCF7/ATCC; Table 18
Excerpt: as §3, §1, §4, §2

| Molecule | % Kill [%] | IC50 [nM] |
| --- | --- | --- |
| B6 | 70 | 80 |
| B7 | 38 | 150 |
| B8 | 53 | 150 |

Same assay, conditions: MCF7/ATCC; Table 20

| Molecule | % Kill [%] | IC50 [nM] |
| --- | --- | --- |
| B6 | 70 | 90 |
| B7 | 40 | 150 |
| B8 | 50 | 150 |

Same assay, conditions: MCF7; Table 12; 3 days

| Molecule | % Kill [%] | IC50 [nM] |
| --- | --- | --- |
| B1 | 65 | 150 |
| B2 | 60 | 150 |
| B4 | 64 | 110 |
| B5 | 67 | 125 |

Tested on: PC3/hPRLR cells
Assay: Cell viability (cell kill) assay
Format: cell-based, human
Details: PC3/PRLR; Table 11; 3 days
Excerpt: as §3, §1, §4

| Molecule | % Kill [%] | IC50 [nM] |
| --- | --- | --- |
| B1 | 68 | 1.37 |
| B2 | 70 | 2.32 |
| B4 | 66 | 0.98 |
| B5 | 65 | 3.65 |

Same assay, conditions: PC3/hPRLR; Table 18

| Molecule | % Kill [%] | IC50 [nM] |
| --- | --- | --- |
| B6 | 83 | 0.4 |
| B7 | 85 | 0.4 |
| B8 | 82 | 0.5 |

Tested on: HEK293 (293) cells
Assay: Cell viability (cell kill) assay
Format: cell-based
Details: 293; Table 11; 3 days
Excerpt: as §3, §1

| Molecule | % Kill [%] | IC50 [nM] |
| --- | --- | --- |
| B1 | 85 | 150 |
| B4 | – | 100 |

Same assay, conditions: 293; Table 19

| Molecule | % Kill [%] | IC50 [nM] |
| --- | --- | --- |
| B6 | 90 | 100 |
